Earlier results in publication PMC5828769.

Tests used:
[1] = molecular target: angiogenin (Homo sapiens) (UniProt P03950)
[2] = molecular target: actin (AngBP) (Bos taurus) (UniProt P60712)

Sequence of UniProt P03950 (P03950 25-147): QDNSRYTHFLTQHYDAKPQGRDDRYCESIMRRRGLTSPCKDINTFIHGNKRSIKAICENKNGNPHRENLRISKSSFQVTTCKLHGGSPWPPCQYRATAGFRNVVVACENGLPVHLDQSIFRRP

| Ki [1] [pM] | Kd [2] [pM] | Substance |
| --- | --- | --- |
| < 0.001 | – | PRI (ribonuclease inhibitor) (from UniProt P13489) |
| – | 500 | angiogenin (from UniProt P10152) |
